Legend:
[1] = biological target: MOD-5014 (FVIIa-CTP3, activated Factor VII-CTP-CTP-CTP) (human) (UniProt P08709); assay: cell-based or functional assay
[2] = biological target: NovoSeven (commercial recombinant human FVIIa) (human) (UniProt P08709); assay: cell-based or functional assay

Substance: Anti thrombin III (ATIII) (from UniProt P01008 33-464)
- % Inhibition of clotting activity, AT 1.050 ng/mL [1]: 25%
- % Inhibition of clotting activity, AT 10.5 ng/mL [1]: 28%
- % Inhibition of clotting activity, AT 105 ng/mL [1]: 25%
- % Inhibition of clotting activity, AT 10,500 ng/mL [1]: 25%
- % Inhibition of clotting activity, AT 105000 ng/mL [1]: 62%
- % Inhibition of clotting activity, AT 525000 ng/mL [1]: 100%
- Activity (mU/mL), clotting assay, AT 0 ng/mL (no inhibitor) [1]: 70.8 mU/mL
- Activity (mU/mL), clotting assay, AT 1.050 ng/mL [1]: 52.9 mU/mL
- Activity (mU/mL), clotting assay, AT 10.5 ng/mL [1]: 50.7 mU/mL
- Activity (mU/mL), clotting assay, AT 105 ng/mL [1]: 53.3 mU/mL
- Activity (mU/mL), clotting assay, AT 1,050 ng/mL [1]: 53.4 mU/mL
- Activity (mU/mL), clotting assay, AT 10,500 ng/mL [1]: 53 mU/mL
- Activity (mU/mL), clotting assay, AT 105000 ng/mL [1]: 27 mU/mL
- Activity (mU/mL), clotting assay, AT 525000 ng/mL [1]: 0 mU/mL
- O.D, FX activation by MOD-5014 (0.7 ng/ml), AT 0.16 µg/ml [1]: 1.18 O.D
- O.D, FX activation by MOD-5014 (0.7 ng/ml), AT 0.8 µg/ml [1]: 1.07 O.D
- O.D, FX activation by MOD-5014 (0.7 ng/ml), AT 4 µg/ml [1]: 1.14 O.D
- O.D, FX activation by MOD-5014 (0.7 ng/ml), AT 20 µg/ml [1]: 1.11 O.D
- O.D, FX activation by MOD-5014 (0.7 ng/ml), AT 100 µg/ml [1]: 0.974 O.D
- O.D, FX activation by MOD-5014 (0.7 ng/ml), AT 500 µg/ml [1]: 0.975 O.D
- O.D, FX activation by MOD-5014 (0.7 ng/ml), AT 1680 µg/ml [1]: 0.656 O.D
- O.D, FX activation by MOD-5014 (0.7 ng/ml), control (no AT) [1]: 1.09 O.D
- O.D., FX activation by MOD-5014 (0.7 ng/ml) with 1 U/µl heparin, AT 0.032 µg/ml [1]: 1.24 O.D.
- O.D., FX activation by MOD-5014 (0.7 ng/ml) with 1 U/µl heparin, AT 0.16 µg/ml [1]: 1.24 O.D.
- O.D., FX activation by MOD-5014 (0.7 ng/ml) with 1 U/µl heparin, AT 0.8 µg/ml [1]: 1.25 O.D.
- O.D., FX activation by MOD-5014 (0.7 ng/ml) with 1 U/µl heparin, AT 4 µg/ml [1]: 1.26 O.D.
- O.D., FX activation by MOD-5014 (0.7 ng/ml) with 1 U/µl heparin, AT 20 µg/ml [1]: 1.08 O.D.
- O.D., FX activation by MOD-5014 (0.7 ng/ml) with 1 U/µl heparin, AT 100 µg/ml [1]: 0.404 O.D.
- O.D., FX activation by MOD-5014 (0.7 ng/ml) with 1 U/µl heparin, AT 500 µg/ml [1]: 0.153 O.D.
- O.D., FX activation by MOD-5014 (0.7 ng/ml) with 1 U/µl heparin, AT 1680 µg/ml [1]: 0.197 O.D.
- O.D., FX activation by MOD-5014 (0.7 ng/ml), AT III constant 20 µg/ml, heparin 0.002 U/µl [1]: 1.29 O.D.
- O.D., FX activation by MOD-5014 (0.7 ng/ml), AT III constant 20 µg/ml, heparin 0.01 U/µl [1]: 1.14 O.D.
- O.D., FX activation by MOD-5014 (0.7 ng/ml), AT III constant 20 µg/ml, heparin 0.25 U/µl [1]: 0.917 O.D.
- O.D., FX activation by MOD-5014 (0.7 ng/ml), AT III constant 20 µg/ml, heparin 1.25 U/µl [1]: 0.896 O.D.
- O.D., FX activation by MOD-5014 (0.7 ng/ml), AT III constant 20 µg/ml, heparin 6.25 U/µl [1]: 1.02 O.D.
- O.D., FX activation by MOD-5014 (0.7 ng/ml), Control [1]: 1.41 O.D.
- % Inhibition of clotting activity, AT 1.050 ng/mL [2]: 21%
- % Inhibition of clotting activity, AT 105 ng/mL [2]: 20%
- % Inhibition of clotting activity, AT 10,500 ng/mL [2]: 30%
- % Inhibition of clotting activity, AT 525000 ng/mL [2]: 100%
- Activity (mU/mL), clotting assay, AT 0 ng/mL (no inhibitor) [2]: 88.1 mU/mL
- Activity (mU/mL), clotting assay, AT 1.050 ng/mL [2]: 69.5 mU/mL
- Activity (mU/mL), clotting assay, AT 10.5 ng/mL [2]: 68.4 mU/mL
- Activity (mU/mL), clotting assay, AT 105 ng/mL [2]: 70.2 mU/mL
- Activity (mU/mL), clotting assay, AT 1,050 ng/mL [2]: 66.8 mU/mL
- Activity (mU/mL), clotting assay, AT 10,500 ng/mL [2]: 61.5 mU/mL
- Activity (mU/mL), clotting assay, AT 105000 ng/mL [2]: 30.6 mU/mL
- Activity (mU/mL), clotting assay, AT 525000 ng/mL [2]: 0 mU/mL
- O.D, FX activation by NovoSeven (0.7 ng/ml), AT 0.16 µg/ml [2]: 1.23 O.D
- O.D, FX activation by NovoSeven (0.7 ng/ml), AT 4 µg/ml [2]: 1.17 O.D
- O.D, FX activation by NovoSeven (0.7 ng/ml), AT 20 µg/ml [2]: 1.15 O.D
- O.D, FX activation by NovoSeven (0.7 ng/ml), AT 100 µg/ml [2]: 1.14 O.D
- O.D, FX activation by NovoSeven (0.7 ng/ml), AT 500 µg/ml [2]: 0.933 O.D
- O.D, FX activation by NovoSeven (0.7 ng/ml), AT 1680 µg/ml [2]: 0.784 O.D
- O.D, FX activation by NovoSeven (0.7 ng/ml), control (no AT) [2]: 1.28 O.D
- O.D., FX activation by NovoSeven (0.7 ng/ml) with 1 U/µl heparin, AT 0.032 µg/ml [2]: 1.16 O.D.
- O.D., FX activation by NovoSeven (0.7 ng/ml) with 1 U/µl heparin, AT 0.16 µg/ml [2]: 1.19 O.D.
- O.D., FX activation by NovoSeven (0.7 ng/ml) with 1 U/µl heparin, AT 0.8 µg/ml [2]: 1.22 O.D.
- O.D., FX activation by NovoSeven (0.7 ng/ml) with 1 U/µl heparin, AT 4 µg/ml [2]: 1.17 O.D.
- O.D., FX activation by NovoSeven (0.7 ng/ml) with 1 U/µl heparin, AT 20 µg/ml [2]: 1.04 O.D.
- O.D., FX activation by NovoSeven (0.7 ng/ml) with 1 U/µl heparin, AT 100 µg/ml [2]: 0.503 O.D.
- O.D., FX activation by NovoSeven (0.7 ng/ml) with 1 U/µl heparin, AT 500 µg/ml [2]: 0.201 O.D.
- O.D., FX activation by NovoSeven (0.7 ng/ml) with 1 U/µl heparin, AT 1680 µg/ml [2]: 0.141 O.D.
- O.D., FX activation by NovoSeven (0.7 ng/ml), AT III constant 20 µg/ml, heparin 0.002 U/µl [2]: 1.24 O.D.
- O.D., FX activation by NovoSeven (0.7 ng/ml), AT III constant 20 µg/ml, heparin 0.01 U/µl [2]: 1.2 O.D.
- O.D., FX activation by NovoSeven (0.7 ng/ml), AT III constant 20 µg/ml, heparin 0.25 U/µl [2]: 1.04 O.D.
- O.D., FX activation by NovoSeven (0.7 ng/ml), AT III constant 20 µg/ml, heparin 1.25 U/µl [2]: 0.98 O.D.
- O.D., FX activation by NovoSeven (0.7 ng/ml), AT III constant 20 µg/ml, heparin 6.25 U/µl [2]: 1 O.D.
- O.D., FX activation by NovoSeven (0.7 ng/ml), Control [2]: 1.43 O.D.
